Consider two substances from patent US20190315799.

The data set has as its system SpyTag-CsgA.

For the substance PTDH-SpyCatcher, the “PTDH activity (OD 340 nm, absorbance of formed NADH)” value was “the thin cotton cloth exhibited almost exclusive specific-enzyme binding”. Consider amylase-SpyCatcher, for which the amylase activity entry is “amylase activity was observed throughout the experiment”.
